Article PMC13065467, “Assembly and phosphoregulatory mechanisms of the budding yeast outer kinetochore KMN complex” (The Journal of Cell Biology, 2026)
Ends that are not written are not given here.

How the values were obtained:
[1] = target: Knl1c:Mis12c^Mtw1c complex K^HB-RWDM^2E (full-length Dsn1 with S240E and S250E phosphomimetic mutations), P53148;Q04431;P40568;P39731;P47149;Q12143; assay: ITC; details: Syringe: CENP-U^Ame1_1-33-Mut (0.32 mM); Cell: K^HB-RWDM^2E (0.016 mM); parent: 1.35 ± 0.08
[2] = test system: KlMis12c^Mtw1c containing an intact Dsn1^AI; details: lower concentrations (50 nM) for CENP-U^Ame1, unphosphorylated complex, ref Dimitrova et al., 2016; cited from earlier work
[3] = target: KlMis12c^Mtw1c with phosphomimetic mutations of Dsn1^AI; details: fluorescence polarization; K. lactis complex with phosphomimetic mutations (Asp mutants of S213/S223); ref Dimitrova et al., 2016; cited from earlier work
Source text: We further investigated the effect of Dsn1^AI on the interaction between K^HB-RWDM (which has wild-type unphosphorylated Dsn1^AI) and a peptide modeled on the N-terminal 38 residues of CENP-C^Mif2 (CENP-C^Mif2_1–38). […] Also similar to Dimitrova et al. (2016), using ITC we found no binding of CENP-UAme1_1-33 to the unphosphorylated KM. […] We cannot accoun ... || (+ 2 further places)

[4] = test system: T1, K^HB-RWDM^Dsn1Δ257 (Knl1c:Mis12c^Mtw1c complex, Knl1^Spc105 residues 1–444 and Dsn1 residues 1–257 deleted); assay: ITC, Dsn1 peptide titrated into K^HB-RWDM^Dsn1Δ257; assay type: binding, S. cerevisiae
T1 construct: made in house; host or cells: High-5 insect cells (baculovirus)
Protocol: Dsn1^228–254 and Dsn1^228–254,S240E,S250E peptides were synthesized by Alta BioScience with N-terminal acetylation and C-terminal GSAW extension and amidation. The final sequence of Dsn1^228–254 was […], and Dsn1^228–254,S240E,S250E was […]. All protein complexes and peptides used in a given experiment were dialyzed for a minimum of 16 h and/or buffer-exchanged by size-exclusion chromatography into the same batch of ITC buffer (25 mM HEPES, pH 7.5, 100 mM NaCl, 1 mM TCEP). All experiments were performed using an Auto-iTC200 instrument (Malvern Instruments) at 25°C. In each experiment, 360 μl of protein complex was pipetted into the calorimeter cell. The protein complex loaded into the calorimeter cell contained Knl1c:Mis12c^Mtw1c with Knl1^Spc105_HB-RWD and Dsn1^Δ1–257 and either wild-type Mis12^Mtw1 (K^HB-RWDM ^Dsn1Δ257) or Mis12^Mtw1_E69A,E73A,E77A mutant (K^HB-RWDM ^Dsn1Δ257_Mis12-3A). Wild-type constructs of all other Knl1c and Mis12c^Mtw1c subunits were included. Titration of either the Dsn1^228–254 or Dsn1^228-254,S240E,S250E peptide into the cell was then performed by an initial injection of 0.5 μl, followed by 19 further injections of 2.0 μl each. […] Titrations were performed in duplicate or triplicate, and reported KD and n values were calculated as an average from all replicate results.

[5] = target: T2, Knl1c:Mis12c^Mtw1c complex K^HB-RWDM^2E (full-length Dsn1 with S240E and S250E phosphomimetic mutations) (S. cerevisiae, UniProt P53148 445-917; Q04431 1-385; P40568 1-576; P39731 1-289; P47149 1-201; Q12143 …, S240E | S250E); assay: ITC; peptide titrated into the complex in the cell; 20°C; 25 mM HEPES pH 7.5, 100 mM NaCl, 0.5 mM TCEP; details: both partners purified
T2 construct: Knl1^Spc105_HB-RWD: Knl1^Spc105, S. cerevisiae S288c, residues 445-917; ZWINT^Kre28, S. cerevisiae S288c; no truncation stated; Dsn1^S240E,S250E: full-length Dsn1, S. cerevisiae S288c, with phosphomimetic mutations; Mis12^Mtw1, S. cerevisiae S288c; Nnf1, S. cerevisiae S288c; Nsl1, S. cerevisiae S288c; also called KM^2E; K^HB-RWDM^S240E,S250E; source: High-5 insect cells (baculovirus), purified …

[6] = target: T3, S. cerevisiae Ndc80 complex (Ndc80, Nuf2, Spc24, Spc25) (S. cerevisiae, UniProt P40460 1-691; P33895 1-451; Q04477 1-213; P40014 1-221); assay: SEC; 4 μM Mis12c^Mtw1c (wild type or mutant) mixed with 4 μM Ndc80c in KMN buffer, 30 min on ice; Superose 6 3.2/300; fractions on SDS-PAGE; details: both partners purified
T3 construct: Ndc80, S. cerevisiae S288c; Nuf2, S. cerevisiae S288c; Spc24, S. cerevisiae S288c; Spc25, S. cerevisiae S288c; The Twin-Strep tag on Nuf2 is TEV cleavable; no cleavage is described; source: High-5 insect cells (two baculoviruses), purified (Strep-Tactin, Resource Q, SEC); copies: + + +
T3 sequence (P40460 whole entry, chain 1 of 4): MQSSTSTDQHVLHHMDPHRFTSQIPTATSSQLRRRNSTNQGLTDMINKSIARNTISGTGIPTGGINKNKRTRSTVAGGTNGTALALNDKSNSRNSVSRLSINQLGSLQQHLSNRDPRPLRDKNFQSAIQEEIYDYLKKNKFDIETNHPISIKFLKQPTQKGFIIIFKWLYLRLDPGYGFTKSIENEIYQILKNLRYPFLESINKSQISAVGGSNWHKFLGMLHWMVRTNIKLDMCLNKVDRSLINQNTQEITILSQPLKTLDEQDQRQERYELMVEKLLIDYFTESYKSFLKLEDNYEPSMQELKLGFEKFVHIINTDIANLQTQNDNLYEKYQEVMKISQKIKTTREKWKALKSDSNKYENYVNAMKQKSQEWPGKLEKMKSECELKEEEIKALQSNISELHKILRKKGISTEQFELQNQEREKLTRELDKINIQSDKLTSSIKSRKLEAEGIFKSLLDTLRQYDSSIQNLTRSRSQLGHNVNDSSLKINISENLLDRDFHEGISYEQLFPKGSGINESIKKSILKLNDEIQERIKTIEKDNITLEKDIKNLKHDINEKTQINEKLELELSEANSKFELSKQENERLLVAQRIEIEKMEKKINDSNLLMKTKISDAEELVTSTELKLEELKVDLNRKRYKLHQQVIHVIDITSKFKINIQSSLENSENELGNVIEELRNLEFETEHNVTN
T3 sequence (P33895 whole entry, chain 2 of 4): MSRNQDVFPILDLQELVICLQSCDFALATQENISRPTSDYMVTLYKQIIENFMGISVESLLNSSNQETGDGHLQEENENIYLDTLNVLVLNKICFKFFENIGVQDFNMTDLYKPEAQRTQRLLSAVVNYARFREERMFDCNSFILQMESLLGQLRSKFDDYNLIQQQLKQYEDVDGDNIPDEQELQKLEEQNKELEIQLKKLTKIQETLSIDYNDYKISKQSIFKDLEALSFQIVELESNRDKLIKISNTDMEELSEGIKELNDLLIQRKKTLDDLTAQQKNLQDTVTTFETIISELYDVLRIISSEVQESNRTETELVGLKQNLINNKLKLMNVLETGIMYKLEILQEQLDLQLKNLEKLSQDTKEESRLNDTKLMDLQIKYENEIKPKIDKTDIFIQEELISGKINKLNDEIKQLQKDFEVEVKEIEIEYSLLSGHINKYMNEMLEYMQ
T3 sequence (Q04477 whole entry, chain 3 of 4): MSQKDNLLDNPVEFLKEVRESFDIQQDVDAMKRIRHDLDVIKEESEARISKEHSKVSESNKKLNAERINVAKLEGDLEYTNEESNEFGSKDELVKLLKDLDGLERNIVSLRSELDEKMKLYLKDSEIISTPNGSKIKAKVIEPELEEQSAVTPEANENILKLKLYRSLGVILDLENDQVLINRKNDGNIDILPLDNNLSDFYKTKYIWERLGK
T3 sequence (P40014 whole entry, chain 4 of 4): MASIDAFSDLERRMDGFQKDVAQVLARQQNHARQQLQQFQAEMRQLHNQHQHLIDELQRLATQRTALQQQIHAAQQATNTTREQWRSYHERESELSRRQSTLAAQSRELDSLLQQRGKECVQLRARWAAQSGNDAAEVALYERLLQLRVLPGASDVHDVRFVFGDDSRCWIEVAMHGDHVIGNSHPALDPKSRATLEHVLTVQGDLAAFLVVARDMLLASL

T2 sequence (P53148 445-917, chain 1 of 2): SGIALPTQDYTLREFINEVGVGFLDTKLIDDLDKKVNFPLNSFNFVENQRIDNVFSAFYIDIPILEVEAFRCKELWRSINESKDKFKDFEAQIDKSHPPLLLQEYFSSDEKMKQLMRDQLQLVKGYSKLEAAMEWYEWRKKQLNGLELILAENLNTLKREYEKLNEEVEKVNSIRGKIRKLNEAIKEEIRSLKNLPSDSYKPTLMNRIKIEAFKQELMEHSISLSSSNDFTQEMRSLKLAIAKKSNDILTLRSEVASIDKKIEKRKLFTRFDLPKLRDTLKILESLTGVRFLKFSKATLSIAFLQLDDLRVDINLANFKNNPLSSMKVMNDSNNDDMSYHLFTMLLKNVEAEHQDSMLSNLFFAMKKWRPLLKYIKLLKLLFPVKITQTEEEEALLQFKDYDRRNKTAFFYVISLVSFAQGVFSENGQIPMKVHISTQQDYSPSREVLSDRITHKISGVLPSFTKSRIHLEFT
T2 sequence (Q04431 whole entry, chain 2 of 2, the tested form may be a part): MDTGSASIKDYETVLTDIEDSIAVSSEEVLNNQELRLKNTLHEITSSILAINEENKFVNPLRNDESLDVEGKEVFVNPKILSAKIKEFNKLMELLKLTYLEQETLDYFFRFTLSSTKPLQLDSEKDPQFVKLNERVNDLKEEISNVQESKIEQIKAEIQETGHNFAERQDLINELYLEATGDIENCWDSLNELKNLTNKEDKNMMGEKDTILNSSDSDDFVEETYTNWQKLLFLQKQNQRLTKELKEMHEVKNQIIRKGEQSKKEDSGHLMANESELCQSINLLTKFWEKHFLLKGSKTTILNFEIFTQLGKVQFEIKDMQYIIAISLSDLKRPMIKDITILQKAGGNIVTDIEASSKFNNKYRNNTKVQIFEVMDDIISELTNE
T1 sequence (Q04431 whole entry, stated change not applied, one chain of several, further chain, the tested form may be a part): as the sequence (Q04431 whole entry, chain 2 of 2, the tested form may be a part) above
T1 sequence (P53148 445-917, stated change not applied, one chain of several, further chain): as the sequence (P53148 445-917, chain 1 of 2) above

Work on “CENP-U^Ame1_1–33 peptide (residues 1–33 of CENP-U^Ame1) D25A; V27A; I28A; F29A; T31A” yielded an other: N (ITC stoichiometry) [1] of 1.34.

For “K. lactis CENP-U^Ame1_1-25: residues 1–25 of K. lactis CENP-U^Ame1, reported by Dimitrova et al., 2016 (MDALKQRHLKLLYRQRGSASRTIDY; UniProt Q6CUE5 1-25, looked up, fragment)”, the “binding (fluorescence polarization)” value [2] is given as “did not interact” and the Kd [3] is given as 1.48 µM.

For “CENP-C^Mif2_1-41: CENP-C^Mif2 peptide (residues 1-41) reported by Dimitrova et al., 2016 (MDYMKLGLKSRKTGIDVKQDIPKDEYSMENIDDFFKDDETS; UniProt P35201 1-41, looked up, fragment)”, the “binding (fluorescence polarization)” value [2] is given as “no binding” and the Kd [3] is given as 1.75 µM.

For “Ac-PHYIQRTRERKKEIGSQRGRRLEMLASGSAW-NH2 [Dsn1^228-254,S240E,S250E]”, the “decrease of affinity versus wild-type peptide” value ([4]; ratio of ITC KD values, S240E,S250E peptide versus wild-type Dsn1^228–254) was “fivefold” and the Kd ([4]; read-out: KD (ITC) of phosphomimetic Dsn1 peptide, ITC, 25°C, 25 mM HEPES pH 7.5, 100 mM NaCl, 1 mM TCEP, syringe 0.35 mM, cell 0.025 mM, average from two experiments (technical repeats)) was 6 µM.

B1: CENP-U^Ame1_1–33 peptide (residues 1–33 of CENP-U^Ame1) (peptide)
peptide: MDRDTKLAFRLRGSHSRRTDDIDDDVIVFKTPNW-NH2
notes: CENP-U^Ame1, S. cerevisiae, residues 1-33; added C-terminal tryptophan after residue 33 (so in the source); source: synthetic peptide (Alta BioScience)
Work on B1 yielded a Kd [5] of 0.24 µM.

B2: CENP-U^Ame1_1-33-Mut peptide (CENP-U^Ame1_1-33 with Ala substitutions) (peptide)
peptide: MDRDTKLAFRLRGSHSRRTDDIDDAAAVAKAPNW-NH2
notes: CENP-U^Ame1, S. cerevisiae, residues 1-33 with five Ala substitutions; added C-terminal tryptophan after residue 33 (so in the source); also called CENP-U^Ame1_1-33 mutant; source: synthetic peptide (Alta BioScience)
Work on B2 yielded a Kd [5] of 1.31 µM.

B3: CENP-C^Mif2_1–38 peptide (N-terminal 38 residues of CENP-C^Mif2) (peptide)
peptide: MDYMKLGLKSRKTGIDVKQDIPKDEYSMENIDDFFKDD-NH2
notes: CENP-C^Mif2, S. cerevisiae, residues 1-38; source: synthetic peptide (Alta BioScience)
Molecule B3 has a Kd [5] of 0.98 µM.

B4: Isolated Mis12c^Mtw1c, full-length and wild-type proteins (Dsn1, Nsl1, Mis12^Mtw1, Nnf1) (complex, S. cerevisiae)
chain 1: MSLEPTQTVSGTPPMLHQRTHKQVYPLRMETIPILESDSKATLQSNEPTQKDEEETEYFENKQSVSNLSPDLKFKRHKNKHIQGFPTLGERLDNLQDIKKAKRVENFNSSAPIADDNHSGDATANATANATANATANVNASAMPAPYMPYYYYYHPMNAPTPAMIPYPGSPMHSIMPNSSLQPFYSQPTAAGGPDMTTPQNISSSQQLLPAPQLFPYGSFHQQQLQQPHYIQRTRERKKSIGSQRGRRLSMLASQANGGSTIISPHKDIPEEDFYTVVGNASFGKNLQIRQLFNWCLMRSLHKLELKAKNQEEEGELEHLTKKSKLESTKAETDYVDPKRLAMVIIKEFVDDLKKDHIAIDWEDEEKYEDEDEEKILDNTENYDDTELRQLFQENDDDDDDDDEVDYSEIQRSRRKFSERRKALPKEPKKLLPNSKNVENTKNLSILTSKVNAIKNEVKEWAVTLDTSRPDLEWQELTSFSSQPLEPLSDTEEPDLAIADVETKLETKVDELRYQSHILNSHSLALNEITNSKVNKLNIETMRKISSETDDDHSQVINPQQLLKGLSLSFSKKLDL
chain 2: MSQGQSKKLDVTVEQLRSIYHQFHDILEEKTDLHLPKKEYDDDAVRREVQIQLQEFLLSAMTMASKSLEVVNADTVGKTVKQLIMESQEKYMEPFDLDLNEQVRKMYQEWEDETVKVAQLRQTGPAKINEVYNNSKDEYLAQLDGRIGVLQARMMQQQSADHDDSTDDADDHINWEHIKQDYVASLNELYQTQQDLPKVRYNVEKVKRLMDFLEED
chain 3: MSAPTMRSTSILTEHLGYPPISLVDDIINAVNEIMYKCTAAMEKYLLSKSKIGEEDYGEEIKSGVAKLESLLENSVDKNFDKLELYVLRNVLRIPEEYLDANVFRLENQKDLVIVDENELKKSEEKLREKVNDVELAFKKNEMLLKRVTKVKRLLFTIRGFKQKLNELLKCKDDVQLQKILESLKPIDDTMTLLTDSLRKLYVDSESTSSTEEVEALLQRLKTNGKQNNKDFRTRYIDIRTNNVLRKLGLLGDKEDEKQSAKPDARTQAGDIVSIDIEEPQLDLLDDVL
chain 4: MVNSHGIRYIRLKQVFNRALDQSISKLQSWDKVSSCFPQYVNSKQGAINVANCQRQLTEFWTELCQREFKEIMEERNVEQKLNELDELILEAKERYTDRDQDEVNKGPAIDELSSKELVECHLYSQRMHAIHEIDERLAKVNEMNDQLAQELKDLETQVEVEKNEIGKMYDEYLGSHTDQPANVLLVQSLNDMVLELKENY
notes: Dsn1, S. cerevisiae S288c; Nsl1, S. cerevisiae S288c; Mis12^Mtw1, S. cerevisiae S288c; Nnf1, S. cerevisiae S288c; source: High-5 insect cells (two baculoviruses), purified (Strep-Tactin, SEC); copies: + + +
B4: binds [6].

B5: Mis12c^Mtw1c_Nnf1ΔC (isolated Mis12c^Mtw1c with Nnf1 residues 180–201 deleted) (complex, S. cerevisiae)
chain 1: B4 chain 1
chain 2: B4 chain 2
chain 3: B4 chain 3
chain 4: MVNSHGIRYIRLKQVFNRALDQSISKLQSWDKVSSCFPQYVNSKQGAINVANCQRQLTEFWTELCQREFKEIMEERNVEQKLNELDELILEAKERYTDRDQDEVNKGPAIDELSSKELVECHLYSQRMHAIHEIDERLAKVNEMNDQLAQELKDLETQVEVEKNEIGKMYDEYLGSHTD
notes: Dsn1, S. cerevisiae S288c; Nsl1, S. cerevisiae S288c; Mis12^Mtw1, S. cerevisiae S288c; Nnf1^Δ180-C: Nnf1, S. cerevisiae S288c, residues 180-201 deleted; also called Nnf1^Δ180-C; source: High-5 insect cells (two baculoviruses), purified (Strep-Tactin, SEC); copies: + + +
B5: binds [6].

B6: Mis12c^Mtw1c_Mis12ΔC (isolated Mis12c^Mtw1c with Mis12^Mtw1 residues 272–289 deleted) (complex, S. cerevisiae)
chain 1: B4 chain 1
chain 2: B4 chain 2
chain 3: MSAPTMRSTSILTEHLGYPPISLVDDIINAVNEIMYKCTAAMEKYLLSKSKIGEEDYGEEIKSGVAKLESLLENSVDKNFDKLELYVLRNVLRIPEEYLDANVFRLENQKDLVIVDENELKKSEEKLREKVNDVELAFKKNEMLLKRVTKVKRLLFTIRGFKQKLNELLKCKDDVQLQKILESLKPIDDTMTLLTDSLRKLYVDSESTSSTEEVEALLQRLKTNGKQNNKDFRTRYIDIRTNNVLRKLGLLGDKEDEKQSAKPDARTQAGD
chain 4: B4 chain 4
notes: Dsn1, S. cerevisiae S288c; Nsl1, S. cerevisiae S288c; Nnf1, S. cerevisiae S288c; also called Mis12^Mtw1_Δ272-C; source: High-5 insect cells (two baculoviruses), purified (Strep-Tactin, SEC); copies: + + +
B6: binds [6].

B7: Mis12c^Mtw1c_Mis12ΔC-Nnf1ΔC (isolated Mis12c^Mtw1c with Mis12^Mtw1 residues 272–289 and Nnf1 residues 180–201 deleted) (complex, S. cerevisiae)
chain 1: B4 chain 1
chain 2: B4 chain 2
chain 3: B6 chain 3
chain 4: B5 chain 4
notes: Dsn1, S. cerevisiae S288c; Nsl1, S. cerevisiae S288c; Nnf1^Δ180-C: Nnf1, S. cerevisiae S288c, residues 180-201 deleted; source: High-5 insect cells (two baculoviruses), purified (Strep-Tactin, SEC); copies: + + +
B7: binds [6].
